The assay deals with RSV融合(F)タンパク質 (RSV fusion (F) protein), on RSV-infected HEp2 cells (respiratory syncytial virus (RSV)) (UniProt P03420). Nature of the assay: cell-based or functional assay.
UniProt P03420, sequence (P03420 26-574): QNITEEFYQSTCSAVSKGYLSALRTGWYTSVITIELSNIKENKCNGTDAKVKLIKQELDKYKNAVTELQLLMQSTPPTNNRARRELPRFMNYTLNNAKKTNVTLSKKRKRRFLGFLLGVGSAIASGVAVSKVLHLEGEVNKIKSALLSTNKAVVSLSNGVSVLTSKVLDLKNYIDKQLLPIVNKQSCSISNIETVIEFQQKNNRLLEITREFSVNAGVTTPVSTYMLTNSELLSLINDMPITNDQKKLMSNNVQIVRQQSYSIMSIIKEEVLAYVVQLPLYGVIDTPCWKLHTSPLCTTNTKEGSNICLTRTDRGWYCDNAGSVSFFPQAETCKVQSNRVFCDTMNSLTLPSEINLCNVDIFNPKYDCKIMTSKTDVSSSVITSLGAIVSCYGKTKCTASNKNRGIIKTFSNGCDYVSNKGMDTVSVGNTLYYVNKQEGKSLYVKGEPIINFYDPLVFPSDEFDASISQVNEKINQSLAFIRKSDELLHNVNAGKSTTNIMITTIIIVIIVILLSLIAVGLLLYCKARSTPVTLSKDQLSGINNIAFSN

Substance “抗RSV抗体D25 (anti-RSV monoclonal antibody D25)” came in with an RSV-A2ウイルスに対して最大活性の半分を阻害する濃度(IC50) (microneutralisation) of 2.1 ng/mL.
